Key:
[1] = target: Semi-purified recombinant West Nile virus NS1 with 8-His tag (West Nile virus) (UniProt Q9Q6P4); test: sandwich ELISA: coated mAb 3.1112G captures rNS1, rabbit anti-WNV-NS1 polyclonal detection
[2] = target: recombinant NS1 (rNS1), construct not stated; test: as above

UniProt Q9Q6P4, sequence (Q9Q6P4 799-1144, tags or fused parts left off): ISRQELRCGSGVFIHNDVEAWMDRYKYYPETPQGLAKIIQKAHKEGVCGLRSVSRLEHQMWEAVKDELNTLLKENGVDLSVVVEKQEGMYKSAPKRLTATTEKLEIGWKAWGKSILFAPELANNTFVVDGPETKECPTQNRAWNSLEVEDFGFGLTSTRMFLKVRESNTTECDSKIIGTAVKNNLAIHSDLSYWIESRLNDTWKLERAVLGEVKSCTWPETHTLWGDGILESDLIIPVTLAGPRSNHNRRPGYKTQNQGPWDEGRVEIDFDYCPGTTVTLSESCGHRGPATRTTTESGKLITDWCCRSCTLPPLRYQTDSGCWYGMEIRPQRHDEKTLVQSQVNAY

Q: What does the source list for “monoclonal antibody against Kunjin NS1 (3.1112G, Chemicon International)”?
A: O.D. [1]: 0.887 O.D. 450 nm; O.D. [2]: 0.577 O.D. 450 nm

— patent publication US20050053923A1
